For 2 substances, percent of total 255-kD protein sedimented and percent of total axolinin sedimented results are on record in paper PMC2114230.

Test [1] has as its target actin filaments of rabbit skeletal muscle actin (rabbit) (UniProt P68135). Description: co-sedimentation.
Test [2] has as its target microtubules of rat brain tubulin (rat) (UniProt P68370). Description: co-sedimentation.

Turning to “255-kD protein of squid giant axon (natural protein)”, the percent of total 255-kD protein sedimented in test [1] was found to be 62%.
As for “axolinin (260-kD protein) of squid giant axon (natural protein)”, the percent of total axolinin sedimented in test [2] turned out to be 70%.
